Target: SUSD5 protein, expressed on HEK293 cells (ZsGreen1-SUSD5 vector) (Homo sapiens, UniProt O60279)
Experiment: flow cytometry on cells

SUSD5 protein, expressed on HEK293 cells (ZsGreen1-SUSD5 vector), sequence (O60279 36-629): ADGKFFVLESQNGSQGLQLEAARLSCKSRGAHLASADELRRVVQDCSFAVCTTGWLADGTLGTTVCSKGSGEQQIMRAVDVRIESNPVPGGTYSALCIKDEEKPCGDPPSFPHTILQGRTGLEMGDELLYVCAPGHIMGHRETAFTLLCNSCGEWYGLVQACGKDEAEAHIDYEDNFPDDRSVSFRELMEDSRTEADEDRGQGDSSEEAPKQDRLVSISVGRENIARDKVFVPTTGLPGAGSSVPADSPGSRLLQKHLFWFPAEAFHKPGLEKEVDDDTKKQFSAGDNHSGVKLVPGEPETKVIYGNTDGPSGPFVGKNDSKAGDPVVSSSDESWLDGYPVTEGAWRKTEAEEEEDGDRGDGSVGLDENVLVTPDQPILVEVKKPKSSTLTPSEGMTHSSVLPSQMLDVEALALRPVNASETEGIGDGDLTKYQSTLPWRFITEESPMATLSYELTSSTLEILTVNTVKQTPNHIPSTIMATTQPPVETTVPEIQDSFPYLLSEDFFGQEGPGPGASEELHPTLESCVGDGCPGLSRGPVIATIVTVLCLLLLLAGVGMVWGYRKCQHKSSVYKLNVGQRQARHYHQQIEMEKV

B1: h1-3F1, stabilized humanized anti-CD169 mAb of clone #3F1 (variant 6 of h0-3F1) (antibody, V domains shown)
VH: QVQLVQSGAEVKKPGASVKVSCKASGYSFTTYYMHWVRQAPGQRLEWMGWISAYSGATKYSQKFQGRVTITRDTSASTAYMELSSLRSEDTAVYYCARKGGWIPFDYWGQGTTVTVSS
VL: not shown
B1: binds.
